Laboratory results reported in the supplement of paper PMC12764529.
± gives the half width of the 95% confidence interval.

Key:
[1] = folding stability dG unfold from chymotrypsin proteolysis; higher = more stable
Description: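 Folding stability of de novo designed mini-proteins (<80 aa, no Cys; designed by TrROS, TrMRF, ProteinMPNN and the joint model) was measured by cDNA display proteolysis with trypsin and chymotrypsin. Each protease was used at 11 concentrations in a threefold dilution series plus a no-protease condition. K50 was inferred by Bayesian fitting of sequencing counts, and dG unfold was derived against a sequence-predicted unfolded-state K50 (Tsuboyama et al. method). Sequences shown include variable-length N-terminal GS-type padding (SAGGSAGG...) inside a display construct carrying a PA tag. Rows were kept only if the AF2 dimer inter-PAE was >15, to exclude likely homo-oligomers.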

[2] = folding stability dG unfold (combined trypsin and chymotrypsin); higher = more stable
How it was run: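 Only designs with AlphaFold2 dimer inter-PAE above 15 were retained; each was a mini-protein under 80 residues with no cysteine, in a PA-tagged cDNA display construct. After digestion with trypsin and chymotrypsin and sequencing, K50 was inferred by Bayesian fitting of counts, and unfolding free energy was derived per protease or combined against a sequence-predicted unfolded-state K50 and a shared folded-state K50.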

SAGGSAGGAPVYVTTDTRERADPNGSTVRTSLVRDPNGPATYRVTETVPPDGSVASTTTAVPGASAGGSAGG [r6_839_JUSTAS]
folding stability dG unfold [1]: -0.532 ± 0.23 kcal/mol
folding stability dG unfold [2]: < -1 kcal/mol

SAGGSAGGDIKIEDIEYEQNPGGWQKVEVRLPGNGRPIEVPVPPGMPYEQAKDWAKDWAEELLKSAGGSAGG [r6_628_TrROS]
folding stability dG unfold [1]: 0.724 ± 0.13 kcal/mol
folding stability dG unfold [2]: 0.511 ± 0.22 kcal/mol

SAGGSAGGDKVTIESFHPENWYFRIRYPGNGKPISFPIKSVDELLDKIEPSGLPVEIEWMPPEESAGGSAGG [r6_33_TrROS]
folding stability dG unfold [1]: 0.233 ± 0.26 kcal/mol
folding stability dG unfold [2]: -0.0248 ± 0.32 kcal/mol

SAGGSAGGGASTRRTITVPYEDPEEAFEKVKEEVKAETGKPTEVTLTEIDPNNPGVITVEVTVSSAGGSAGG [r6_211_JUSTAS]
folding stability dG unfold [1]: 0.938 ± 0.019 kcal/mol
folding stability dG unfold [2]: 0.351 ± 0.07 kcal/mol

SAGGSAGGKEVKVTLEYDEETGTLTLTVETPDGYVFKLEITFEKDEDGNLKVTIKLEVIPLEDLSAGGSAGG [r6_537_TrROS_Hall]
folding stability dG unfold [1]: 4.45 ± 0.21 kcal/mol
folding stability dG unfold [2]: 4.39 ± 0.61 kcal/mol

SAGGSAGGKTKVKGTLIGPNGPPVEVEGEALLPDGREYDVHIDAVLLPDPEGEPTVVVKVEVKPSAGGSAGG [r6_334_TrMRF]
folding stability dG unfold [1]: 0.168 ± 0.051 kcal/mol
folding stability dG unfold [2]: -0.127 ± 0.23 kcal/mol

SAGGSAGGMFVPEGKTVTVKLPGNETVTVKVKAGNSRPFDSLEEIEAFAAQPGFDIEVSSSPAKSAGGSAGG [r6_433_JUSTAS]
folding stability dG unfold [1]: 0.0627 ± 0.077 kcal/mol
folding stability dG unfold [2]: -0.722 ± 0.21 kcal/mol

SAGGSAGGMLVPLDDTRVVPLPDGSYAVLVRPADGSELLREFDSLEDAVEWAEATGAGVADLPASAGGSAGG [r6_84_TrMRF]
folding stability dG unfold [1]: 0.0582 ± 0.18 kcal/mol
folding stability dG unfold [2]: -0.553 ± 0.34 kcal/mol

SAGGSAGGMPVVVETRPDPETGNEIVRITVPKPNYTLVLRRDSQGKETLLAEIGPYTPDDPGLLSAGGSAGG [r6_149_JUSTAS]
folding stability dG unfold [1]: 0.474 ± 0.18 kcal/mol
folding stability dG unfold [2]: -0.00962 ± 0.23 kcal/mol

SAGGSAGGMREIEHEIPNPNGRNIKIKIEYDPDQGWHPVEIENPGNGKKKTYPFDSADEVLDQLSAGGSAGG [r6_465_TrROS]
folding stability dG unfold [1]: 0.598 ± 0.031 kcal/mol
folding stability dG unfold [2]: 0.0475 ± 0.17 kcal/mol

SAGGSAGGMTIKELLKEGVPFKIEMYGPNNGEPREFKIPPGESIDDILENMPFPPGMQIRIEPKSAGGSAGG [r6_232_TrROS]
folding stability dG unfold [1]: 0.121 ± 0.31 kcal/mol
folding stability dG unfold [2]: -0.142 ± 0.42 kcal/mol

SAGGSAGGMVITFTAPDGTPLGTVEVELPPNNPEAEEEARELAEALRAELEEAGRPVAATVEPASAGGSAGG [r6_884_JUSTAS]
folding stability dG unfold [1]: 0.903 ± 0.088 kcal/mol
folding stability dG unfold [2]: 0.309 ± 0.14 kcal/mol

SAGGSAGGNTIELPLPNGMELEIPVQKNPEGYYQVNIERYDPDDGKKKEIPFTMPAEDIKDFLKSAGGSAGG [r6_859_TrROS]
folding stability dG unfold [1]: -0.205 ± 0.29 kcal/mol
folding stability dG unfold [2]: -0.785 ± 0.36 kcal/mol

SAGGSAGGPPPVRVTIETETTTTFPNGTPRTTTNTVVLDAPEEEAEAAVAAIPASVVKSVARTGSAGGSAGG [r6_985_JUSTAS]
folding stability dG unfold [1]: 0.486 ± 0.057 kcal/mol
folding stability dG unfold [2]: -0.187 ± 0.24 kcal/mol

SAGGSAGGSAAPDLVTETETRTHPETGLVITRERVTLPSTGTTEERTVVTDPETGVTTTEKSSAGGSAGGSA [r18_383_JUSTAS]
folding stability dG unfold [1]: 0.294 ± 0.038 kcal/mol
folding stability dG unfold [2]: -0.139 ± 0.13 kcal/mol

SAGGSAGGSAGAYSATPVEERRLPDGSTLVRERVTDPATGTPALREVLVTDEGVEERLLPSAGGSAGGSAGG [r11_991_JUSTAS]
folding stability dG unfold [1]: 0.415 ± 0.098 kcal/mol
folding stability dG unfold [2]: -0.458 ± 0.1 kcal/mol

SAGGSAGGSAGEAASSLKLPPVTLTTPPVPVELPPGLTVESVEPVRTPSGETILVVNLVRSAGGSAGGSAGG [r11_388_JUSTAS]
folding stability dG unfold [1]: 0.279 ± 0.13 kcal/mol
folding stability dG unfold [2]: -0.349 ± 0.19 kcal/mol

SAGGSAGGSAGGDEILELERIPETGELVLRRITPDGEGFRIEEEVVPVGPELAEALPEGSAGGSAGGSAGGS [r10_291_TrMRF]
folding stability dG unfold [1]: -0.279 ± 0.34 kcal/mol
folding stability dG unfold [2]: < -1 kcal/mol

SAGGSAGGSAGGDPDLPVYSVSPTTIPAPPGQDSPTPGPNSVTVDANGTATVTETSVSLVSAGGSAGGSAGG [r7_556_JUSTAS]
folding stability dG unfold [1]: -0.6 ± 0.2 kcal/mol
folding stability dG unfold [2]: < -1 kcal/mol

SAGGSAGGSAGGDVNSPNIPPVLTVEPVEVLDPGGGGLRRRVVYVAPGGIVLETEERPESAGGSAGGSAGGS [r10_261_JUSTAS]
folding stability dG unfold [1]: 0.702 ± 0.12 kcal/mol
folding stability dG unfold [2]: 0.156 ± 0.16 kcal/mol

SAGGSAGGSAGGGMEFSTVTVKRTLKTLGKTEVTTVPVVNPVPPPPPLGPENIARSRGVLSAGGSAGGSAGG [r7_79_JUSTAS]
folding stability dG unfold [1]: -0.0494 ± 0.21 kcal/mol
folding stability dG unfold [2]: < -1 kcal/mol

SAGGSAGGSAGGGMKLRLVTYSITTTNKVFPSLEEALAAPPDETDGVDEIISSSLKPLLSAGGSAGGSAGGS [r10_729_JUSTAS]
folding stability dG unfold [1]: 0.21 ± 0.17 kcal/mol
folding stability dG unfold [2]: -0.326 ± 0.15 kcal/mol

SAGGSAGGSAGGGMTTTYTTETIEAPDGTVVIKKTTTYDYGNGSLTKPTIYNPDGTPIGSAGGSAGGSAGGS [r10_1056_JUSTAS]
folding stability dG unfold [1]: 0.452 ± 0.14 kcal/mol
folding stability dG unfold [2]: -0.188 ± 0.12 kcal/mol

SAGGSAGGSAGGGPAKALITSPDGSKAEATVTVDTATGTVTLTVENASLPPDWKLELLGSAGGSAGGSAGGS [r10_306_TrMRF]
folding stability dG unfold [1]: 0.768 ± 0.065 kcal/mol
folding stability dG unfold [2]: 0.0987 ± 0.23 kcal/mol

SAGGSAGGSAGGGPGFTVLERREDPATGTVTILRRFAFPDGSTALEPRVVPRAPDERLESAGGSAGGSAGGS [r10_605_JUSTAS]
folding stability dG unfold [1]: -0.0135 ± 0.17 kcal/mol
folding stability dG unfold [2]: < -1 kcal/mol

SAGGSAGGSAGGGPPVERVTTETILRPDGTTTTTRKTTVVPPTDTVTTTTTTLTTTPVTSAGGSAGGSAGGS [r10_1139_JUSTAS]
folding stability dG unfold [1]: 0.328 ± 0.067 kcal/mol
folding stability dG unfold [2]: 0.0441 ± 0.18 kcal/mol

SAGGSAGGSAGGGRVLRLADGKWRLVELPDGSVVLVPENVPVLDPEAKEPVLVAPVLPLDSAGGSAGGSAGG [r7_968_TrMRF]
folding stability dG unfold [1]: 0.938 ± 0.073 kcal/mol
folding stability dG unfold [2]: 0.223 ± 0.06 kcal/mol

SAGGSAGGSAGGGSVTRLPDGVTTVVTFPDGSTVTVPAGVPYTDPNAATPVTVSPVPPALSAGGSAGGSAGG [r7_968_JUSTAS]
folding stability dG unfold [1]: 0.119 ± 0.1 kcal/mol
folding stability dG unfold [2]: < -1 kcal/mol

SAGGSAGGSAGGGYVTLSHEIPPDQSVEITAPDGKKAKQERDPATKTVTYKISPELYKLLSAGGSAGGSAGG [r7_155_JUSTAS]
folding stability dG unfold [1]: -0.855 ± 0.56 kcal/mol
folding stability dG unfold [2]: < -1 kcal/mol

SAGGSAGGSAGGKDEKPKPLKVPVIVAPAPEYLELAKKLLPPDKAKVIEKKDDKVVIAFGSAGGSAGGSAGG [r7_670_TrMRF]
folding stability dG unfold [1]: -0.425 ± 0.32 kcal/mol
folding stability dG unfold [2]: -0.533 ± 0.21 kcal/mol

SAGGSAGGSAGGKKKVKILEVKKIPELNEIVVVIETENGKPVLVPLKPGKTLEDVKKEISAGGSAGGSAGGS [r10_984_TrMRF]
folding stability dG unfold [1]: 0.913 ± 0.042 kcal/mol
folding stability dG unfold [2]: 0.44 ± 0.21 kcal/mol

SAGGSAGGSAGGKLTLKLGDYEVEVEWNPDEDVFIAEFPGDPRIARLRIPDDKIEIEPIESAGGSAGGSAGG [r7_156_TrMRF]
folding stability dG unfold [1]: 0.819 ± 0.12 kcal/mol
folding stability dG unfold [2]: 0.392 ± 0.11 kcal/mol

SAGGSAGGSAGGKPITIERNEDNGPIEIRFPGNGRRIHFPFPPGDDITIDAEDGNIEIKSAGGSAGGSAGGS [r10_979_TrROS]
folding stability dG unfold [1]: 0.827 ± 0.016 kcal/mol
folding stability dG unfold [2]: 0.314 ± 0.086 kcal/mol

SAGGSAGGSAGGKPTIKLKVTITNENGEKIEIEVEAESEEEALEALKALLPPGWKVEIESAGGSAGGSAGGS [r10_145_TrROS_Hall]
folding stability dG unfold [1]: 2.82 ± 0.2 kcal/mol
folding stability dG unfold [2]: 4.21 ± 0.67 kcal/mol

SAGGSAGGSAGGKPVKVKVVIPVPDGDEVLVLEVEVEGEGGEEAVRQALEVAAELLREGSAGGSAGGSAGGS [r10_863_TrMRF]
folding stability dG unfold [1]: 0.768 ± 0.088 kcal/mol
folding stability dG unfold [2]: 0.0842 ± 0.23 kcal/mol

SAGGSAGGSAGGKRRIQIPPDDPGMTAEQLADRLQKEFPENGVPVEITNIDDYGYIEIESAGGSAGGSAGGS [r10_579_TrROS]
folding stability dG unfold [1]: 0.962 ± 0.021 kcal/mol
folding stability dG unfold [2]: 0.443 ± 0.088 kcal/mol

SAGGSAGGSAGGLHPDQEFAVRLDLDLDLRLGPGADLRVSDVRVGGVRVYDLRTGRWLDSAGGSAGGSAGGS [r10_248_TrMRF]
folding stability dG unfold [1]: 0.445 ± 0.15 kcal/mol
folding stability dG unfold [2]: -0.323 ± 0.25 kcal/mol

SAGGSAGGSAGGLKELADKLNPGFEIRVENIEPTPGPVRINVRAPNEGVPRSIPIDPDDISAGGSAGGSAGG [r7_303_TrROS]
folding stability dG unfold [1]: 0.993 ± 0.018 kcal/mol
folding stability dG unfold [2]: 0.479 ± 0.043 kcal/mol

SAGGSAGGSAGGLLRAPDGSTAIVVRDASPETVARALHELNPNAVIVVAPIPNVAVIYLDSAGGSAGGSAGG [r7_370_TrMRF]
folding stability dG unfold [1]: 0.178 ± 0.1 kcal/mol
folding stability dG unfold [2]: -0.575 ± 0.51 kcal/mol

SAGGSAGGSAGGLPPGQKYVIKMYNPNGKRQEHEFEIPPGEPFKDFEFPNGWRYDIYPVKSAGGSAGGSAGG [r7_132_TrROS]
folding stability dG unfold [1]: 0.0841 ± 0.29 kcal/mol
folding stability dG unfold [2]: -0.321 ± 0.42 kcal/mol

SAGGSAGGSAGGMAVVVDSPEEAEEVIEELERSFPALGAKVVVPRVQVGDKLVLPLGLELSAGGSAGGSAGG [r7_588_TrMRF]
folding stability dG unfold [1]: 0.0463 ± 0.068 kcal/mol
folding stability dG unfold [2]: -0.501 ± 0.15 kcal/mol

SAGGSAGGSAGGMIKVLEKKEFTPPTGGKEYELKTLDESNGTESIIKFPKEEYKNLKIPSAGGSAGGSAGGS [r10_326_JUSTAS]
folding stability dG unfold [1]: 0.681 ± 0.12 kcal/mol
folding stability dG unfold [2]: 0.145 ± 0.2 kcal/mol
